The target in assay [1] is T1, Human NPR-B (Homo sapiens, UniProt P20594).
T1 construct: purchased R&D system
T1 sequence (P20594 23-458 limits assumed): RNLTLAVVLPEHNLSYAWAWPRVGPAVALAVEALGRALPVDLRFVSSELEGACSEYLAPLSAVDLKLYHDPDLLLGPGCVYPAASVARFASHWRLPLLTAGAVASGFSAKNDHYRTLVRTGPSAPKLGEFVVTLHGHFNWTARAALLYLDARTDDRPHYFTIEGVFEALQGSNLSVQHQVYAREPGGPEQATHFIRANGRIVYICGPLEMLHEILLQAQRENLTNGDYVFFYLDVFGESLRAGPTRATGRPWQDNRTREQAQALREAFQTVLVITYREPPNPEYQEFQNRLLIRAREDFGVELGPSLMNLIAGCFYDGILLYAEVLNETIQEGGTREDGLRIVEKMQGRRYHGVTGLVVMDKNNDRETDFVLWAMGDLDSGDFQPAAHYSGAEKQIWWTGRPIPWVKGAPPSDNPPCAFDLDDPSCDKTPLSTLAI
Nature of the assay: Biacore SPR kinetic affinity binding to immobilized NPR-B. As to the method:
The biological function of these purified protein was assayed for their stimulation of production of cGMP, using NPR-B receptor positive cell line, NIH/3T3 and NPR-B negative cell line HEK293 cells. The determination of cGMP was assay by ELISA using commercial CNP as standard curves. […] Surface preparation. NBR-B was immobilized at different levels in three flow cells via standard amine coupling, leaving Fc 1 unmodified to serve as a reference. All surface plasmon resonance (SPR) analysis was performed on a BIAcore 3000 system using series CM5 sensor chips. Data processing and analysis were performed using BIAevaluation software. All sensorgrams were double referenced by subtracting the response on a reference flow cell and a blank sample. Human NPR-B (R&D system) was covalently attached to a CM5 chip via amine coupling. A surface density of 6600 RU was used for measurements with natriuretic peptides Sequential injections of CNP (0.5-8 nM) were performed at a flow rate of […] (300 s for each), followed by a dissociation time of 900 s. […] Kinetic parameters were calculated assuming a simple 1:1 (Langmuir) binding. […] All SPR analysis was performed on a BIAcore 3000 system using series CM5 sensor chips. Data processing and analysis were performed using BIAevaluation software. All sensorgrams were double referenced by subtracting the response on a reference flow cell and a blank sample. Human NPR-B (R&D system) was covalently attached to a CM5 chip via amine coupling. A surface density of 3100 RU was used for measurements with natriuretic peptides Sequential injections of AMI263 (FC4-CNP) (0.125-2 nM) were performed at a flow rate of […] (300 s for each), followed by a dissociation time of 900 s. […] Kinetic parameters were calculated assuming a simple 1:1 (Langmuir) binding. […] All SPR analysis was performed on a BIAcore 3000 system using series CM5 sensor chips. Data processing and analysis were performed using BIAevaluation software. All sensorgrams were double referenced by subtracting the response on a reference flow cell and a blank sample. Human NPR-B (R&D system) was covalently attached to a CM5 chip via amine coupling. […] Kinetic parameters were calculated assuming a simple 1:1 (Langmuir) binding. […] All SPR analysis was performed on a BIAcore 3000 system using series CM5 sensor chips. Data processing and analysis were performed using BIAevaluation software. All sensorgrams were double referenced by subtracting the response on a reference flow cell and a blank sample. Human NPR-B (R&D system) was covalently attached to a CM5 chip via amine coupling. A surface density of 3100 RU was used for measurements with natriuretic peptides Sequential injections of AMI263 (FC4-CNP) (0.5-300 nM) were performed at a flow rate of […] (300 s for each), followed by a dissociation time of 900 s. […] Kinetic parameters were calculated assuming a simple 1:1 (Langmuir) binding. […] All SPR analysis was performed on a BIAcore 3000 system using series CM5 sensor chips. Data processing and analysis were performed using BIAevaluation software. All sensorgrams were double referenced by subtracting the response on a reference flow cell and a blank sample. Human NPR-B (R&D system) was covalently attached to a CM5 chip via amine coupling.

Assay [2] deals with HEK293 cells. Kind of assay: CNP-Fc ELISA of supernatant of AAV-transduced HEK293 cells. Format: cell-based, Human. Conditions: CNP-Fc in HEK293 supernatant 5 days after transduction with 100,000 MOI of AAV2 N54 vector. As to the method: C-type natriuretic peptide (CNP) has two isoforms, CNP-22 and CNP-53. Example 2 illustrates that CNP-36 fused with Fe increased the half-life of the CNP and also facilitated in purification and ELISA detection when compared to native (unfused) CNP. Transduction and CNP-Fc expression experiments were performed with three AAV vectors (AMI061, AMI087 and AMI0488). FIG. 1A is the pictorial depiction of the three vectors. FIGS. 1B-F illustrate additional vectors that can encode the CNP or the CNP fusion protein. Enzyme-linked immunoassay (ELISA) was developed for quantifying CNP-Fc fusion proteins in cell culture supernatants. The ELISA assay was used to quantify CNP-Fc expressed in HEK293 cells, human chondrocytes (HCH) cells, and human skeletal muscle cells (hSkMC) upon transduction with one of the three AAV constructs described herein.
Buffer and substrate. Coating buffer: 3.7 g sodium bicarbonate, 0.64 g sodium carbonate in 1 L of Milli Q water, pH 9.6. Stored at RT; Blocking buffer: Commercial Casein blocking buffer in PBS+ added 0.1% Tween20. Stored at 4° C.; Standard diluent: same as blocking buffer; Wash buffer: 1×PBS with 0.1% tween 20 (30 days expiry from date of manufacture); Coating Antibody (Ab): Human CNP Antibody (monoclonal), coating concentration was 2 μg/mL; Detection Ab: Goat pAb anti-human Fc. Diluted up to 1:20,000 final dilution in well. Stored at 4° C.; HRP: Streptavidin-HRP stock of 1 mg/mL, diluted up to 1:10,000. Stored at 4° C.; Substrate: TMB. Stored at 4° C.; and Stop solution: 2 N HCl. Stored at ambient temperature.
• 1. Coat 96-well plate with 2 μg/mL anti-CNP antibody final concentration per well in the coating buffer with a 50 μL volume and cover the plate with sealing cover. Put the plate at 4° C. overnight. • 2. Next day, remove the plate, wash thrice with wash buffer and tap the plate on the paper towel to remove excess solution. • 3. Add 300 μL of blocking buffer to each well using multichannel pipette. […] Add 50 μL stop solution and read plate at 450 nm with 600 as reference within 15 min. […]
(In general: An ELISA detects its analyte on a solid surface through an enzyme-linked reagent.)

Assay [3] concerns NIH3T3 cells (cGMP secreted). Kind of assay: EC50 for CNP-Fc constructs, cGMP ELISA of NIH3T3 supernatant. The settings on record: NIH3T3, 30 minutes, 1.8 mM IBMX, cGMP secreted by the cells; FIG. 25B. It is filed as cell-based. Here is the method:
EC50 for CNP-Fc described herein were measured by ELISA. 2.5E+05 NIH3T3 cells/well were plated. […] After 30 minutes, supernatant was collected for cGMP determined via ELISA. FIG. 25A illustrates a standard curve of cGMP.

In assay [4] the target is T2, NPR-B on NIH/3T3 cells (NPR-B receptor positive cell line) (UniProt Q6VVW5 17-1047, limits assumed).
T2 sequence (looked up): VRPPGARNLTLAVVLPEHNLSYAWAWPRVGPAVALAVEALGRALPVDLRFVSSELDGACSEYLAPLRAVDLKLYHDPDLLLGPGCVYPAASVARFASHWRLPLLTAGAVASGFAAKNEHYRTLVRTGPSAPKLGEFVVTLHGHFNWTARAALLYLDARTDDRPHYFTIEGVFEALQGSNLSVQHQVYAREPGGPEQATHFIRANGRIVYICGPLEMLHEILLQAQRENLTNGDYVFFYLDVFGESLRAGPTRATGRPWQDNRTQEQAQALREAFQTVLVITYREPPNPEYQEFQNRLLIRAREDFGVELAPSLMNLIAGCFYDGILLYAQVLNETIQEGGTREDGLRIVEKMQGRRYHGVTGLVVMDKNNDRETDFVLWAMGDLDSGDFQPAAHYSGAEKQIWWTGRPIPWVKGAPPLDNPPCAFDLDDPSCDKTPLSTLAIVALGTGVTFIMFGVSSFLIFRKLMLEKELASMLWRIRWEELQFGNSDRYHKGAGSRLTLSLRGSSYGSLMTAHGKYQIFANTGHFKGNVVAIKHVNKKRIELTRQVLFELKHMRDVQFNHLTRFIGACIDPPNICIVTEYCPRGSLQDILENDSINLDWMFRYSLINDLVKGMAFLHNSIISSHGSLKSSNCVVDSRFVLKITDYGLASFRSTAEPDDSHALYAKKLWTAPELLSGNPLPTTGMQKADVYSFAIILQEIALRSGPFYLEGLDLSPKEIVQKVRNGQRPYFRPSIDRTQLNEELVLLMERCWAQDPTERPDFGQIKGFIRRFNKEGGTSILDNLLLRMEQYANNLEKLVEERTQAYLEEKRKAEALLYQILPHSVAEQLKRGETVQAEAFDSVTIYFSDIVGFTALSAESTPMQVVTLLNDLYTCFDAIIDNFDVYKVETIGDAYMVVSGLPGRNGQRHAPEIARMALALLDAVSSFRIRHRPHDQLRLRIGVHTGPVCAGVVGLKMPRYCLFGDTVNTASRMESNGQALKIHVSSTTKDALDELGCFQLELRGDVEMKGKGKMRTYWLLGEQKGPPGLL
Nature of the assay: cell-based or functional assay.

In assay [1] ((FIG. 7C-7I)), “AMI087: purified CNP-Fc fusion protein CNP36-(G4S)4-Fc1, SEQ ID NO: 132” had a ka of 3.65E3 and a kd of 1.53E-3. In assay [1] (Table 32 summary of affinity), the ka turned out to be 3.65E+03 and the kd stood at 1.53E−03. The “Concentration” value in assay [2] was 33 µg/mL.
“AMI269: fusion protein Fc4-(G4S)4-CNP22, SEQ ID NO: 136”: the “EC50 values (rank order)” value in assay [3] was “CNP-22 ≡Fc4-CNP36>Aflibercept-Fc4-CNP36>Fc1-CNP36>>Fc4-CNP22”.
With SLRRSSCFGGRMDRIGAQSGLGCNSFRY (peptide, UniProt P01160 124-151, looked up) [ANP], in assay [4], the “EC50 (cGMP production, drawn table, row ANP)” value came out at 112 nM and the “EC50 (read off the curve), cGMP production” value was around 100 nM.

Values taken from patent US20250099622A1, “COMPOSITIONS AND METHODS FOR EXPRESSING THERAPEUTICS” (priority 2022, published 2025).
